Experiments:
[1] = biological target: T1, Processed stabilized hMPV PreF trimer (115BV) (human metapneumovirus, strain B2); experiment: BLI, mAb on anti-human Fc sensor
T1 construct: also called Processed hMPV PreF trimer; processed PreF

[2] = biological target: T2, hMPV PostF trimer (human metapneumovirus, strain B2); experiment: BLI, mAb on anti-human Fc sensor
T2 construct: also called MPV PostF (dPFv1)

[3] = biological target: T3, Unprocessed hMPV PreF trimer (human metapneumovirus, strain B2); experiment: BLI, mAb on anti-human Fc sensor
T3 construct: also called Unprocessed hMPV WT PreF trimer; unprocessed hMPV PreF trimeric antigen

[4] = biological target: T1, Processed stabilized hMPV PreF trimer …; experiment: BLI, ratio to unprocessed PreF trimer

| Binder | Octet binding response [1] [nm] | Octet binding response [2] [nm] | Octet binding response [3] [nm] | processed/unprocessed PreF trimer binding ratio [4] |
| --- | --- | --- | --- | --- |
| M2B12 (antibody, V domains shown, IgG) VH: QVQLVESGGGVVQPGRSLRLSCEASGFTFSSSAMHWVRQAPGKGLEWVAIISYHGTNKDYSDSVRGRFTISRDNSKNTLYLQMNGLRGDDTAVYYCAKEAAVSGNFDSWGQGTMVTVSS VL: QLVLTQSPSASASLGASVKLTCTLISGPSNYAIAWHRQQPQKGPRYLMKVNSDGSHTKGDGIPDRFSGSSSGTERYLIISNLQSEDEADYYCQTWGSGIYVFGPGTKVTVL | 0.438 | 0.445 | 0.378 | 1.16 |
| M2A06 (antibody, V domains shown, IgG) VH: QVQLVQSGAEVKKPGASVKISCKASGYSFSNYYIQWVRQAPGQGLEWLGIINPSGGSTDYAQKFEGRVSMTRDTSTNTVYMEMSSLRSEDTASYYCVRSLANGSGSPWGQGTLVIVSS VL: DIQMTQSPSTLSASVGDRVTITCRASQSISSRLAWYQQKPGKAPNLLLYDASRSESGVPSRFSGSGSGTEFTLTISSLQPDDVATYYCQHYSIYSRWTFGQGTKVEIK | 0.052 | -0.0352 | 0.237 | 0.22 |
| M2D2 (antibody, V domains shown, IgG) VH: QVQLVQSGAEVKKPGASVKVSCKASGYNFDNYYMSWVRQAPGQGLEWLGIIDPSGGRISYAPKFQGRVTLTRDTSTSTVYMELRGLRFEDTALYYCARLEATHEGPWGQGTLVTVSS VL: QSVLTQPPSASGTPGQRVTISCSGSNSNIGSSTVNWYQQLPGTAPKLLIYSDNHRPSGVPDRFSGSRSGTSASLVISGLHSEDEADYYCGTWDDGLNGPYVFGTGTKVTVL | 0.351 | 0.454 | 0.362 | 0.97 |
| M2A05 (antibody, V domains shown, IgG) VH: QITLKESGPTLVKPTQTLTLTCTVSGFSLSANSVGVAWFRQPPGKAPEWLGVIYWDDDKRFSPSLKTRLSITKDASTSQVVLRLTNVSPLDTATYYCVRKHYDLLQWGQGAPVTVSS VL: EIVLTQSPGTLSLSPGEGATLSCRASRSVNSDYIAWYQHKPGLAPRLLIYAASTRATDIPDRFRADVSGTDFTLTIDRLEPDDFAVYYCQQYGSAVWTFGQGTRVEVK | 0.447 | 0.449 | 0.378 | 1.18 |
| M2B10 (antibody, V domains shown, IgG) VH: QVQLVESGGGVVQPGRSLRLSCAASGFTFSNYPMHWVRQAPGKGLAWVALISYDGRTKYYADSVKGRFTISRDNSMNTVYLQMNSLRAEDTAVYYCAREGLEYLNYWGQGTLVTVSS VL: EIVLTQSPGTLSLSPGERATLSCRASQSISSNSLAWYQQKPGQAPRLLSYGTSNRATGIPDRFSGSGSGTDFTLTISRLEPEDFAVYYCQQYGSSPLTFGPGTKVDIK | 0.0278 | -0.0646 | 0.209 | 0.13 |
| M2A02 (antibody, V domains shown, IgG) VH: QVQLVQSGAEVKRPGSSVKVSCKASGDIFSSHAISWVRQTPGQGLKWMGRIIPLVGIRNYAQDLQGRVTISADKSINTVYMELTNLRFDDTAVYYCARDRTDWSGGLDIWGQGTRVTVSS VL: EIVLTQSPATLSLSPGERATLSCRASQRIGSYLAWYQQKPGQAPRLLIYDASNRATGIPARFSGSGSGTDFTLTISRLEPEDSAIYYCQQRTDWFTFGGGTKVEIK | 0.0795 | -0.0402 | 0.261 | 0.3 |
| M4B11 (antibody, V domains shown, IgG) VH: QVQLVQSGTEVQTPGASVKVSCKTSGYIFTGYFMHWVRQAPGQGFEWMGWVNPYSGATTYAQKFQGRVTMTRDTSISTVYMELSRLTSDDTAIYYCAKDTSNSGPDLLEHWGQGTLVIVSS VL: EIVLTQSPATLSLSPGERATLSCRASQSISNFLVWYQRKPGQAPRLLIFDVSKRATGIPTRFSGSGSGTDFTLTISSLEPEDFAVYYCQQRSNWPPGYTFGQGTKLEIK | 0.0489 | 0.426 | 0.273 | 0.18 |
| M2B09 (antibody, V domains shown, IgG) VH: QVQLVQSGPEVKGPGASVRVSCKANGYTFTSYGINWVRQTPGQGLQWMGWISVHTDDTKDVQQFQDRVTMTTDTSTSTVFMELRNLRFDDTAVYYCARDRTDISGRVRDAFDLWGQGTLVTVSS VL: SYVLTQPPSVSVAPGQTAKITCGGNNIGSKSVHWYRQKPGQAPVLVVYDDSDRPSGIPERFSGSNSGNTATLTISRVEAGDEADYYCHVWDSYSDPNYVFGSGTKVTVL | 0.0092 | -0.0435 | 0.302 | 0.03 |
| M4C04 (antibody, V domains shown, IgG) VH: RVTLRESGPALLKPTQTLTLTCTFSGFSLNTYGMSVNWIRQPPGKALEWLSRIDWDGDKYFNTSLKTRLTISKDTSKNQVVLTMTNMEPVDTATYYCAQSVIVPAQSFVSWFDPWGPGTLVTVSS VL: EIVMTQSPATLSVSPGERATLSCRASQSVRSNLAWYQQKPGQAPRLLIYGASSRATGIPARFSGSGSGTEFTLTISSLQSEDLAIYYCQQYNNWPPGAFGQGTKVEIK | 0.303 | 0.442 | 0.342 | 0.89 |
| M2A03 (antibody, V domains shown, IgG) VH: QLQLQESGPGLVKPSETLSLTCSVSGGSISSSSNSWTWIRQPPGKGLEWIATIFYFGSTYYNPSLRSRVAISVDTSENQFSLKLTSVTAADTAVYFCARHILSSSGVSGWLDPWGQGTLVTVSS VL: SYELTQPPSVSVSPGQTASITCSGEKLGSKYAHWYQQKPGRSPVLVIYQDTKRPSGIPERFSGSNSGSTATLTISGTQAMDEADYYCQAWDSSSFVFGTGTTVTVL | 0.109 | 0.477 | 0.369 | 0.29 |
| M2D01 (antibody, V domains shown, IgG) VH: QVQLQESGPGVVKPSETLSLTCTVSRGAITDYHLNWIRQPPGKGLEWIGYISSSGSTNYNPSLKSRVTISQVMSGTQFSLKLTSMSAADTALYYCASSSGRYWGGALDLWGQGTQVIVSS VL: DIVMTQSPDSLAVPLGERATINCKSSQSLLYTSNNKNSLAWYQQKPGQPPKLLLFWASTREFRVPDRFSGSGSGTDFTLTISSLQAEDVAVYYCQQYYTAPYTFGPGTKLEIK | 0.0622 | 0.493 | 0.33 | 0.19 |
| M2F01 (antibody, V domains shown, IgG) VH: QVQLVQSGAEVKKPGASVKVSCKASEDTFTNYYMHWVRQAPGQGLEWMGIINPSGGSTDYAQKFQGRVTMTRDTSTSTVYMELSSLRSEDTAMYYCARQGRTAACDYWGQGTLVTVSS VL: DIQMTQSPSSVSASVGDRVTITCRASQGIRSWLAWYQQKPGKAPKLLIYAASTLQSGVPSRFSGSGSGTDFTLTISSLQPEDFATYYCQQSNSFSLFTFGPGTRVDIK | 0.0736 | -0.0326 | 0.335 | 0.22 |
| M4F8 (antibody, V domains shown, IgG) VH: QVQLVQSGPEVKKPGASVKISCKASEYTFTNHYLHWVRQAPGQGLEWLGIINPTGGSTYYAGDFQGRVTLTRDASTTTVYMELSSVKSEDTAIYYCARDRGMRYFDYWGQGTLVTVSS VL: QSVLTQPPSVSGAPGQRVSISCTGISSNIGATYDVHWYQQLPGTAPKLLIYGNNNRPSGVPDRFSGSKSGTSASLAITGLQAEDEAVYYCQSYDSVLSGSVIFGGGTILTVL | 0.0584 | 0.0408 | 0.271 | 0.22 |
| M4C03 (antibody, V domains shown, IgG) VH: EVQLVESGGTLVQPGGSLRLSCAASGFRFNAFSMNWVRQAPGKGLEWVSYIDSRSNIIYYADSVKGRFTISRDNAKTSLYLRMSSLRDEDTAVYYCAKALCVVNYDFWSGLLGCAMDVWGQGTTVTVSS VL: QSVLTQPPSVSGAPGQRVTISCTGTTSNIGAGFDVHWYQQVPGTAPKLLIYANTDRPSGVPDRFSASKSGTSASLAITGLQVEDEAHYYCQTYDTTLSGSTVFGGGTKLTVL | 0.0323 | 0.506 | 0.263 | 0.12 |
| M4C08 (antibody, V domains shown, IgG) VH: EVQLVESGGTLVQPGGSLRLSCAASGFKFNAFSMNWVRQAPGKGLEWVSYIDSRSNIIYYADSVKGRFTISRDNAKNSLYLRMSSLRDEDTAVYYCAKALCVVNYDFWSGLLGCAMDVWGQGTTVTVSS VL: QSVLTQPPSVSGAPGQRVTISCTGNTSNIGAGFDVHWYQQVPGTAPKLLIYANTDRPSGVPDRFSASKSGTSASLAITGLQAEDEADYYCQTYDRSLSGSTVFGGGTKLTVL | 0.0268 | 0.467 | 0.222 | 0.12 |
| M3A07 (antibody, V domains shown, IgG) VH: QVQLVQSGAEVQKPGASVKVSCKASGYTFTRHAIHWVRQAPGQRLEWIGWVHGGNENTKYSQKLQGRVTITRDTSASTAYMELNSLRYEDTAVYYCATAMPGAFNMWGQGTVVTVSS VL: DIQMTQSPSTLSASVGDRVTITCRASQSISSWVAWYQQKPGKAPKLLIYKAFSLETGVPSRFSGSGSGTEFTLTISSLQPDDCATYYCQQYGSFSEFTFGQGTKLEIK | 0.0536 | -0.022 | 0.324 | 0.17 |
| M4B05 (antibody, V domains shown, IgG) VH: QVQLVQSGPEVRKPGASVIISCKASGYSFISYYIHWVRQAPGQGLEWMGIINPSGGSTEYAQKYQGRLTITRDTSTTTVSMTLSSLRSDDTAVYFCAREQAVGAYDIWGQGTMVTVSS VL: EIVLTQSPGTLSLSPGERATLSCRAGQLINGNYLAWYQKKPGQAPSLLIYDVSRRAAGVPDRFTGSGSGTDFTLTISRLEPDDFAVYYCQHYGRSPSPTFGGGTKVEIK | 0.0529 | -0.0395 | 0.281 | 0.19 |

Reference: patent US20240327502A1 (Merck Sharp & Dohme, published 2024)
